In patent US20060015952A1, “Screening assays and methods of tumor treatment” (GENENTECH, INC., priority 2003, published 2006):
Marks after values point to notes of the source that are not given here.

Assays:
[1] = test system: B16-F10 and B16-BL6 metastatic melanoma sublines; experiment: Mouse model of metastatic melanoma, secondary lung tumors; type: in vivo; details: approximately 30 mg/kg
Method: (§1) This study used B16-F10 and B16-BL6 metastatic melanoma sublines, subcutaneously injected into immunocompetent mice, to test the effect of anti-TGF-β antibodies (2G7) on primary and secondary melanoma. In particular, C57Black 6 mice were injected subcutaneously with 500,000 tumor cells. The primary tumor developed was removed at day 14, and the mice were sacrificed around day 28. The anti-TGF-β antibody concentration was approximately 30 mg/kg. The B16-F10 subline is known to be able to colonize bone if introduced into the bone by direct injection (not as a result of subcutaneous injection). The B16-BL6 subline is metastatic to the lung.

[2] = target: rTGF-beta1 (Homo sapiens, UniProt P01137); experiment: Immunoprecipitation of 125I-rTGF-beta1; type: binding; parameters: made in house; details: 2 μg purified monoclonal antibody
rTGF-beta1, sequence (P01137 279-390 limits assumed): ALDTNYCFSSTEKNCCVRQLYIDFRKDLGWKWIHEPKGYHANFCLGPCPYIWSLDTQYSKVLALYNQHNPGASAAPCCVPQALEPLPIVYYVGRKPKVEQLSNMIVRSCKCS
Method: (§2) The specificity of anti-TGF-beta monoclonal antibodies was also evaluated by their ability to immunoprecipitate ^125I-rTGF-beta1 or porcine, platelet-derived ^125I-TGF-beta2 (R & D Systems, Minneapolis, Minn.; specific activity 103.4 μCi/μg). Two μg of purified monoclonal antibody was incubated with 5×10^4 CPM of ^125I-rTGF-beta1 or ^125I-TGF-beta2 for two hours at 22° C. The immunocomplexes were pelleted with protein A-SEPHAROSE™ bead-formed agarose-based gel filtration matrix (Repligen, Cambridge, Mass.) coated with rabbit anti-mouse IgG (Boehringer Mannheim Biochemicals, Indianapolis, Ind.) and subsequently washed 3× with PBST. The complexes were dissociated from the protein A-SEPHAROSE™ bead-formed agarose-based gel filtration matrix with reducing sample buffer and electrophoresed into 12% SDS-polyacrylamide gel (SDS-PAGE) and exposed to autoradiography.

[3] = test system: B16-F10; experiment: Mouse model of metastatic melanoma, B16-F10 subline; type: in vivo; details: about 30 mg/kg
Method: as §1

[4] = test system: PyMT tumors; experiment: PyMT tumor mouse model of breast cancer; type: in vivo; details: relative to IgG control
Method: This is a mouse model of breast cancer caused by expression of the polyoma middle T oncoprotein (PyMT) in the mammary epithelium. Primary tumor cells from PyMT tumors were injected (2 million or 5 million cells) into the mammary fat pad of a recipient mouse. The tumor developed was then passaged in a large number of further mice.

[5] = target: T1, TGF-beta1 (Homo sapiens, UniProt P01137); experiment: Affinity determination, solid-phase radioimmunoassay / competitive inhibition, Scatchard analysis; type: binding; details: competitive inhibition assay
T1 construct: made in house
T1 sequence (P01137 279-390 limits assumed): as above
Method: The solid-phase radioimmunoassay procedure described by Mariani et al, J. Immunol. Methods, 71: 43 (1984) was used to determine the affinities of the TGF-beta-specific monoclonal antibodies. Briefly, purified anti-TGF-beta monoclonal antibodies were coated on IMMUNLON™ 2 “REMOVAWELL”™ strips in pH 9.6 carbonate buffer for 18 hours at 4° C. The wells were washed and blocked as described above. 40,000 CPM/well of either ^125I-rTGF-beta1 or porcine ^125I-TGF-beta2 (R & D Systems), in 50 μl PBSG, was added to 2-fold serial dilutions of non-labeled rTGF-beta1 or porcine TGF-beta2 ranging from 2500 to 9.7 ng/well, in 50 μl PBSG. The resulting mixture was incubated for 18 hours at 4° C. The wells were washed and counted as described above and the affinity constants determined by Scatchard analysis (Munson and Pollard, Anal. Biochem., 107: 220 (1980)), which yields similar results as the non-linear regression analysis of Antoni and Mariani, J. Immunol. Meth., 83: 61 (1985).

[6] = test system: Her2+ epithelial cells; experiment: Metastasis from Her2+ epithelial cells (non-surface lung tumors); type: in vivo, mouse
Method: (§3) Epithelial cells from trastuzumab-sensitive (F2-1282) and trastuzumab-resistant (Fo5) tumor cell lines were injected into mammary fat pads of immunocompetent mice.
Metastasis from such cells produces non-surface lung tumors (images not shown), the incidence and growth of which are not inhibited by anti-TGF-β antibody treatment.

[7] = test system: B16-BL6; experiment: Mouse model of metastatic melanoma, B16-BL6 subline; type: in vivo; details: about 30 mg/kg
Method: as §1

[8] = target: T2, TGF-beta1 dimer (nonreduced) form (Homo sapiens, UniProt P01137); experiment: Immunoblot analysis with rTGF-beta1; type: binding
T2 construct: made in house
T2 sequence (P01137 279-390 limits assumed): as above
Method: One μg/lane of rTGF-beta1 was electrophoresed in 12% SDS-PAGE using non-reducing sample buffer to determine the reactivities of the various monoclonal antibodies with the dimer forms of rTGF-beta1. The peptides were transblotted onto nitrocellulose paper and probed with the appropriate monoclonal antibody conjugated with HRP. Bound antibody was visualized using the insoluble substrate 4-chloro-1-naphthol (Kirkegaard and Perry, Gathersburg, Md.). The reaction was stopped after 15 minutes by exhaustive washing with distilled water and the immunoblots were dried and photographed.

[9] = test system: Fo5 tumor cell line; experiment: Trastuzumab-resistant Her2+ breast cancer mouse model; type: in vivo; details: 25 mg/kg at day 0
Method: as §3

[10] = test system: F2-1282 tumor cell line; experiment: Trastuzumab-sensitive Her2+ breast cancer mouse model; type: in vivo; details: 25 mg/kg at day 0
Method: as §3

[11] = test system: 4T1 tumor cells; experiment: 4T1 mouse mammary carcinoma model; type: in vivo
Method: In a first set of experiments, 4T1 cells were derived from a single spontaneously arising mammary tumor from a BALB/cfC3H mouse. Primary 4T1 tumor cells were injected into mammary fat pads of immunocompetent BALB/c mice One week after injection, palpable primary tumors were observed. The tumor spontaneously metastasized into the lung (about two week after injection), liver and spleen (about three weeks after injection) and bone (between about 4 and 5 weeks after injection).
The animals were treated with 15 mg/kg, 25 mg/kg and 43 mg/kg doses of an anti-TGF-β antibody (2G7). Tests were carried out at day 0, 1, 2, and 1 and 2 weeks after injection of cancer cells.

[12] = target: T3, porcine, platelet-derived TGF-beta2 (Sus scrofa, UniProt P09858); experiment: Immunoprecipitation of 125I-TGF-beta2; type: binding; details: 2 μg purified monoclonal antibody
T3 construct: porcine, platelet-derived ^125I-TGF-beta2; purchased R & D Systems; host or cells: porcine platelets
T3 sequence (P09858 303-414 limits assumed): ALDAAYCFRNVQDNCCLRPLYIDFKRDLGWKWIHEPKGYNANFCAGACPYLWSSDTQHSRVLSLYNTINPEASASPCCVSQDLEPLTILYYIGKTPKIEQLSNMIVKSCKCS
Method: as §2

[13] = early treatment (5 weeks after injection of cells)
[14] = mice injected with tumor cells, relative to mice with tumors treated with control antibodies
[15] = mice without tumor cells, relative to control mice without tumors

B1: 2G7: murine anti-TGF-beta monoclonal antibody; VL and VH SEQ ID Nos. 1 and 2 (antibody, listed as Mus musculus, V domains shown)
VH: QVXLXQSGAELVRPGTSVKVSCKASGYAFTNYLIEWVKQRPGQGLEWIGVNNPGSGGSNYNEKFKGKATLTADKSSSTAYMQLSSLTSDDSAVYFCARSGGFYFDYWGQGTTQSPSPQPKRRAH
VL: DIMMTQSPSSLAVSAGEKVTMSCKSSQSVLYSSNQKNYLAWYQQKPGQSPKLLIYWASTRESGVPDRFTGSGSGTDFTLTISSVQAEDLAVYYCHQYLSSDTFGGGTKLEIKRTVA
modifications: not fully specified; Xaa 3, 5 Unknown amino acid
incidence of metastatic lung tumor [1]: significantly decreased | number of metastatic lung tumor [1]: significantly decreased | incidence of metastatic lung tumor ([1]; listed as anti-TGF-β antibody): decreases | number of metastatic lung tumor ([1]; listed as anti-TGF-β antibody): decreases | immunoprecipitation of 125I-rTGF-beta1 (autoradiograph) [2]: immunoprecipitated equivalent amounts | survival of mice with melanoma [3]: increased | survival of mice with melanoma ([3]; listed as anti-TGF-β antibody): increases | primary tumor growth [4]: decreased | affinity of interaction between TGF-beta1 and the monoclonal antibody [5]: 1.2e+08 L/mol | incidence and growth of non-surface lung tumors [6]: not inhibited | survival of mice with melanoma [7]: increased | survival of mice with melanoma ([7]; listed as anti-TGF-β antibody): increases | band strength in indirect immunoblot ([8]; nonreduced TGF-beta1 dimer): much stronger band than either 4A11 or 12H5 | reactivity in indirect immunoblot with TGF-beta1 dimer ([8]; nonreduced form): reacted | size of primary tumor [9]: increased | systemic VEGF levels [9]: increased | size of primary tumor [10]: increased | systemic VEGF levels [10]: increased | results of 25-mg/kg dose versus 15-mg/kg dose ([11]; 25 mg/kg vs 15 mg/kg, data not shown): better results than the 15-mg/kg dose | results of 25-mg/kg versus 43-mg/kg doses ([11]; 25 mg/kg vs 43 mg/kg): no significant difference | size of primary tumor ([11]; 43-mg/kg dose): transiently decreased | systemic levels of VEGF ([11]; 43-mg/kg dose): reduced | histology scores (grade and number of lobes affected) of secondary lung tumors [11, 13]: decreased | volume of secondary lung tumors [11, 13]: decreased | weight of secondary lung tumors [11, 13]: decreased | breast tumor-induced bone destruction ([11]; early treatment (5 weeks after injection of tumor cells)): inhibited certain parameters of breast tumor-induced bone destruction | BS/BV [11, 14]: −6.6% | BV/TV [11, 14]: +14.3% | Mineral density [11, 14]: +6.3% | Trabecular number [11, 14]: +6.5%** | Trabecular thickness [11, 14]: +7.2% | BS/BV [11, 15]: ns | BV/TV [11, 15]: −4.8% | Mineral density [11, 15]: ns | Trabecular number [11, 15]: −2.8%* | Trabecular thickness [11, 15]: ns | immunoprecipitation of 125I-TGF-beta2 (autoradiograph) [12]: immunoprecipitated ^125I-TGF-beta2 to any measurable degree
